# Results reported in patent US20030032777A1, “Precursor polypeptide of phytosulfokine derived from Arabidopsis thaliana and a gene encoding said polypeptide” (priority 2001, published 2003).
# Square brackets hold non-standard residues; d marks the D form. Ends that are not written are not given here. sY = N[C@@H](Cc1ccc(OS(=O)(=O)O)cc1)C(=O)O
# B1: AtPSK2 gene: gene of 545 bases (SEQ ID NO: 2) encoding 87-amino-acid phytosulfokine precursor of Arabidopsis thaliana (nucleic acid, listed as Arabidopsis thaliana)
# DNA: TTTAAGCATCTCTCTCCCTTCAAAGAAAATATCACAAAAATGGCAAACGTCTCCGCTTTGCTCACCATAGCTCTTCTCCTTTGCTCCACGCTAATGTGCACTGCCCGCCCCGAACCGGCCATCTCCATCTCTATCACGACTGCTGCCGATCCATGTAACATGGAGAAGAAGATAGAAGGAAAATTAGATGACATGCATATGGTAGACGAAAACTGTGGTGCAGACGACGAAGATTGCTTAATGAGGAGGACTTTGGTCGCTCATACTGATTACATCTATACCCAGAAGAAGAAGCATCCTTGATTTTCACTTACTCATTTCTAACAAACTTTTGCTCAAGATTATGTAATTTATGTCATCCTTAATTAGTATTTGTCACATACAAGATCAAGATAGTTATGATTGTGATTATTTATATGTATTTTGGATGATATATTGTAGAACTAGAAGTTTGACAATAAAAAGTTTATAGTGTCGTTGTATGTTTAAGAAGTTTGACAATAAAAACTTTATAGTGTTGTTGCAAAAAAAAAAAAAAAAAAAAA
# B2: AtPSKL gene: gene of 479 bases (SEQ ID NO: 4) encoding 79-amino-acid phytosulfokine precursor of Arabidopsis thaliana (nucleic acid, listed as Arabidopsis thaliana)
# DNA: CTTCTCAGGCTCCCATTATCTTTCTCTATTTTGCAAATCAGTATGGGTAAGTTCACAACCATTTTCATCATGGCTCTCCTTCTTTGCTCTACGCTAACCTACGCAGCAAGGCTGACTCCGACGACAACCACCGCTTTGTCCAGAGAAAACTCCGTCAAGGAAATTGAAGGAGACAAGGTTGAAGAAGAAAGCTGCAACGGAATTGGAGAAGAAGAATGTTTGATAAGACGAAGCCTTCTTCTTCACACCGATTACATTTATACTCAGAATCACAAGCCCTAAGTTTCTGTATTAGAGCAATTAATTAACTAATTACATTATCAAACCTATCACTGTAGTACTTTCTGTTTTCTGTTCGTCTTTTTTGTTTTGTTTTGTTTATGTTATCGCTATTTTAAAGTTTCATTGTTATTTTGAAAGTTCTTACACCATCATTATTGATAGTCTCTTAAAACAAAAAAAAAAAAAAAAAAAAAAAA
# Legend:
# [1] = system: Arabidopsis cultured cells; test: Rate of cell division / proliferation of transgenic cells; type: cell-based, Arabidopsis thaliana; conditions: for Cell proliferation of transformed Arabidopsis cultured cells: cells transformed by the gene
# Method: Constructs were transformed into Agrobacterium tumefaciens (C58C1Rif^R) by triparental mating (Van Haute et al., 1983), and Agrobacterium-mediated transformation of roots of Arabidopsis Columbia ecotype was essentially as described (Valvekens et al., 1988). Transgenic microcalli were generated by incubating co-cultivated root explants for 3 weeks on the callus induction medium (B5+0.5 mg/l 2,4-D and 0.05 mg/l KIN) supplemented with 50 mg/l Kan sulphate (Life Technologies, Grand Island, N.Y., USA) and 750 mg/l vancomycin hydrochloride (Wako, Osaka, Japan). The individual regenerating microcalli were transferred to fresh medium to ensure that all transformants were due to independent T-DNA insertions. To detect the introduced genes, genomic DNA was isolated from transgenic calli, digested with BamHI, and allowed to hybridize with the labeled cDNA as described above. Arabidopsis cells transformed with the binary vector alone served as controls.
# To examine whether AtPSK2 and AtPSKL indeed code for precursors to PSK, we transformed 28-day-old Arabidopsis roots with artificially mutated AtPSK2 or AtPSKL cDNAs in the sense orientation designed to produce [Ser^4]PSK-α instead of PSK-α, and the wild-type cDNAs in sense and antisense orientations, respectively. The chimeric genes were placed under the control of the constitutive cauliflower mosaic virus (CaMV) 35S promoter incorporated within the binary vector pMAT037 (Matsuoka and Nakamura, 1991). Arabidopsis cells transformed with the binary vector alone served as controls. B5 medium (Gamborg et al., 1968) supplemented with 0.5 mg/L 2,4-dichlorophenoxyacetic acid (2,4-D) and 0.05 mg/L kinetin (KIN) was used to induce calli.
# The rate of cell division was investigated on the transgenic cells. The results on AtPSK2 and AtPSKL are shown in FIGS. 12 and 13, respectively. In FIGS. 12 and 13, A indicates the result of the sense transgenic cells, B indicates the result of the control cells, C indicates the result of the antisense transgenic cells, respectively. […]
# plant cell = conditions: relative to PSK-α; cited from earlier work
# Arabidopsis cells = test: LC/MS quantification of PSK analogs secreted into conditioned medium (CM) by transgenic cells; type: cell-based, Arabidopsis thaliana; conditions: cells transformed by the gene
# Text: A 22-mer primer (5′-[…]-3′) based on the nucleic acid sequence of the AtPSK2 cDNA and A 24-mer primer (5′-[…]-3′) based on the nucleic acid sequence of the AtPSKL cDNA were synthesized and used to obtain the mutated cDNAs that were designed to produce unnatural [Ser^4]PSK-α instead of PSK-α. Mutations were introduced with a LA PCR In Vitro Mutagenesis Kit (Takara) and confirmed by sequencing. The pMAT037 (Matsuoka and Nakamura, 1991) was employed as a binary vector for Arabidopsis root transformation. Original or mutated cDNAs were digested with SacI and HindIII or KpnI and inserted in-frame into the same sites of the vectors to construct chimeric genes harboring the cDNA in sense or antisense orientations, respectively. Expression of the chimeric genes was driven by the promoter of the CaMV 35S transcript.
# Constructs were transformed into Agrobacterium tumefaciens (C58C1Rif^R) by triparental mating (Van Haute et al., 1983), and Agrobacterium-mediated transformation of roots of Arabidopsis Columbia ecotype was essentially as described (Valvekens et al., 1988). […]
# Mass spectra were obtained using a Fisons VG platform quadruple mass spectrometer with electrospray ionization interfaced to a Jasco PU 980 HPLC system. […] The semiquantitative amounts of the PSK-α, PSK-β, [Ser^4]PSK-α and [Ser^4]PSK-β in CM were measured based on the peak heights without an internal standard. […]
Molecule,Effect of supplementation in the medium on decreased mitogenic activity of antisense transgenic cells ([1]; PSK-α added to medium of antisense transgenic cells),Cell proliferation activity compared to that of PSK-α (plant cell),Secretion of PSK by transformed Arabidopsis cultured cells (Arabidopsis cells),Cell proliferation of transformed Arabidopsis cultured cells [1]
"[sY]I[sY]TQ [PSK-α, reference compound]",alternated in part,,,
[sY]I[sY]T [PSK-β],,less than one-tenth,,
B1,,,could secret the PSK,cell proliferation was enhanced
B2,,,could secret the PSK,cell proliferation was enhanced
